Measured values reported in patent publication US20050136044A1, “Butyrylcholinesterase variants that alter the activity of chemotherapeutic agents” (priority 2003, published 2005).
Residue numbers refer to the chain shown, from its start.

Assays:
[1] = cited from earlier work
[2] = in vitro; Pavillard et al. 2002; cited from earlier work
[3] = CPT-11 conversion to SN-38, fluorescent HPLC detection, conditioned media of transiently expressed BChE variants; type: biochemical; details: for CPT-11 conversion to SN-38 (SN-38 formation by HPLC), in words: 20 mM CPT-11, 72 hours, 37° C., versus mock / wild-type
Description: Butyrylcholinesterase variants were assayed for CPT-11 conversion activity using fluorescent High Performance Liquid Chromotography (HPLC) detection of SN-38 formation as described in Dodds and Rivory, Mol. Pharmacol. 56: 1346-1353 (1999), which is incorporated herein by reference. Briefly, conditioned media from transiently expressed BChE variants were exposed to 20 mM CPT-11 for 72 hours at 37° C. and analyzed by HPLC for SN-38 formation (peak at about 4 minutes column retention time).

[4] = test system: SW48 colon carcinoma cells; assay: MTT cytotoxicity assay of CPT-11 activated by BChE variants; details: CPT-11 at 4 mM incubated 72 hours with enzyme, cells exposed at 0.5 mM for 72 hours, versus mock
Description: Clinically relevant concentrations of CPT-11 (0.5-10 mM) were exposed to BChE variants for 24-72 hours at 37° C. Briefly, CPT-11 at 4 mM was incubated for 72 hours with expressed wild-type BChE, the 6-6 variant, or F227A/L286Q variant. SW48 colon carcinoma cells were exposed to the activated CPT-11 at a concentration of 0.5 mM for 72 hours and cell viability measured by the MTT method. The MTT (3-(4,5-dimethylthiazolyl-2)-2,5-diphenyltetrazolium bromide) assay is commercially available and can be used to measure cell viability based on the ability of a cell to reduce a redox sensitive dye. Note the 6-6 variant is a quadruple mutant referenced as A328W/Y332M/S287G/F227A (SEQ ID NO: 16) in the nomenclature used throughout to describe variants. The 6-6 variant contains the following codons at variant positions: GCG encodes alanine at amino acid position 227, GGT encodes glycine at amino acid position 287, ATG encodes methionine at amino acid position 332, and TGG encodes tryptophane at amino acid position 328.

CD20 = target: T1, CD20 (human, UniProt P11836 1-297); assay: method not stated
T1 construct: whole, on cells; also called CD20 cell surface antigen; CD20 on SKW 6.4 human B lymphoma cells
T1 sequence (looked up): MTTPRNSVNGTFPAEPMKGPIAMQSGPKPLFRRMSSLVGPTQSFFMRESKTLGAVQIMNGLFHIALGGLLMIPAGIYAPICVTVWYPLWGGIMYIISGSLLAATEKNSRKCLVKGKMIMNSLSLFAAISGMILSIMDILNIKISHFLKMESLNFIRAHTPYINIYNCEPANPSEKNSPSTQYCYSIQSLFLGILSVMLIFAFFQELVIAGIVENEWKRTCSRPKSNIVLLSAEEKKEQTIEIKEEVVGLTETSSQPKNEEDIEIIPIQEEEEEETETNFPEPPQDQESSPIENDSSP

[5] = o-nitrophenyl acetate (o-NPA) hydrolysis assay of antibody-captured butyrylcholinesterase variants (carboxylesterase activity); type: biochemical; details: antibody capture/normalization, absorbance 405 nm
Description: A modification of this assay that measures o-NPA activity of butyrylcholinesterase variants normalized by capturing with an anti-butyrylcholinesterase antibody was performed as described below.
Protocol to Determine Carboxylesterase activity of Captured Butyrylcholinesterase by o-Nitrophenyl acetate: • 1) Coat 96-well Immulon 2 plates with rabbit anti-human butyrylcholinesterase (Dako #A0032) at 10 mg/ml in PBS (100 ml/well) overnight at 4° C. • 2) Remove coating solution and block plate with 3% BSA in PBS (250 ml/well) for 2 hours at room temperature. • 3) Add 200 ml butyrylcholinesterase variant conditioned media and incubate at RT for 2 hrs. • 4) Wash plate 3 times with 250 ml/well PBS. • 5) Add 85 ml/well 0.1 M potassium phosphate pH 7.0 • 6) Add 13.6 mg o-NPA to 100 ml acetonitrile, mix to dissolve. Add 100 ml of this stock to 6.3 mls water and mix well. • 7) Wash plate 3 times with PBS. • 8) Add 15 ml of diluted o-NPA substrate. • 9) Read absorbance at 405 nm.
Conditioned media from butyrylcholinesterase variants that were transiently expressed in 293T cells was tested using the above described anti-butyrylcholinesterase antibody capture/normalization assay for carboxylesterase activity. […] The first variant shown in FIG. 1 is F227A (see left-most bar). The level of activity of the other variants can be compared to the level of activity of F227A. […]

[6] = BChE-mediated CPT-11 hydrolysis, SN38 quantitated by reverse-phase HPLC with fluorescence detection; Km by Hofstee plot; type: biochemical; details: 37° C., 24 hours, CPT-11 1-80 μM, Hofstee plot
Description: BChE plasmid variants were expressed transiently in the human embryonic kidney cell line 293T and assayed for activity at 72 hours post-transfection. Primary screening of variants was performed by indirect measurement of enzymatic activation of CPT-11 (FIG. 2) in SW48 colon carcinoma cell cytotoxicity assays. […] Functional hits identified in these assays were characterized by sequence analysis of the corresponding DNA from the original preps. […] Enzyme was incubated at 37° C. for 24 hours with CPT-11 over a range of concentrations from 1-80 μM. […] Velocity (v) is in light absorbance units at 540 nm. Substrate concentration [s] is μM CPT-11.
Samples were acidified and resolved by reverse-phase HPLC on a NovaPak C18 column to separate SN38 from unactivated CPT-11. SN38 peak area under the curve (AUC) was used to compare CPT-11 activation by the wild-type enzyme to the optimized BChE.4-1 variant.

For `CCc1c2c(nc3ccc(OC(=O)N4CCC(N5CCCCC5)CC4)cc13)-c1cc3c(c(=O)n1C2)COC(=O)[C@]3(O)CC` [CPT-11, 7-ethyl-10-[4-(1-piperidino)-1-piperidine]carbonyloxycamptothecin], the “plasma concentrations of CPT-11” value ([1]; patients treated with 200 mg/m2 CPT-11, for at least 24 hours, Ducreux et al. 2003) is listed as “above 0.1 μM” and the “plasma peak concentration versus dose” value ([1]; single agent at up to 500 mg/m^2) is listed as “dose-proportional”.

For `CCc1c2c(nc3ccc(O)cc13)-c1cc3c(c(=O)n1C2)COC(=O)[C@]3(O)CC` [SN38, 7-ethyl-10-hydroxycamptothecin], the “cytotoxicity relative to CPT-11” value [2] is listed as “greater than 1000 fold”.

In the case of F227A/L286Q, the “Fold improvement in CPT-11 conversion” value ([3]; compared to wild-type butyrylcholinesterase, conditioned media exposed to 20 mM CPT-11 for 72 hours at 37° C., SN-38 by HPLC, conservative values) is reported as over 10 fold, the “CPT-11 conversion to SN-38 (SN-38 formation by HPLC), in words” value ([3]; conditioned media) is reported as “increased CPT-11 conversion to SN-38” and the “CPT-11 mediated cytotoxicity in SW48 colon carcinoma cells” value (“CPT-11 mediated cytotoxicity” for short) [4] is reported as “increased tumor cell cytotoxicity”.

B1: AME133 Fab (humanized anti-CD20 with fully human germline framework regions) (Fab, V domains shown)
VH: EVQLVQSGAEVKKPGESLKISCKGSGRTFTSYNMHWVRQMPGKGLEWMGAIYPLTGDTSYNQKSKLQVTISADKSISTAYLQWSSLKASDTAMYYCARSTYVGGDWQFDVWGKGTTVTVSS
VL: EIVLTQSPGTLSLSPGERATLSCRASSSVPYIHWYQQKPGQAPRLLIYATSALASGIPDRFSGSGSGTDFTLTISRLEPEDFAVYYCQQWLSNPPTFGQGTKLEIKR
notes: also called monovalent Fab
B1 showed a Kd (CD20) of 1 nM.

B2: wild-type butyrylcholinesterase (protein, UniProt P06276 29-602, looked up)
Cholinesterase: EDDIIIATKNGKVRGMNLTVFGGTVTAFLGIPYAQPPLGRLRFKKPQSLTKWSDIWNATKYANSCCQNIDQSFPGFHGSEMWNPNTDLSEDCLYLNVWIPAPKPKNATVLIWIYGGGFQTGTSSLHVYDGKFLARVERVIVVSMNYRVGALGFLALPGNPEAPGNMGLFDQQLALQWVQKNIAAFGGNPKSVTLFGESAGAASVSLHLLSPGSHSLFTRAILQSGSFNAPWAVTSLYEARNRTLNLAKLTGCSRENETEIIKCLRNKDPQEILLNEAFVVPYGTPLSVNFGPTVDGDFLTDMPDILLELGQFKKTQILVGVNKDEGTAFLVYGAPGFSKDNNSIITRKEFQEGLKIFFPGVSEFGKESILFHYTDWVDDQRPENYREALGDVVGDYNFICPALEFTKKFSEWGNNAFFYYFEHRSSKLPWPEWMGVMHGYEIEFVFGLPLERRDNYTKAEEILSRSIVKRWANFAKYGNPNETQNNSTSWPVFKSTEQKYLTLNTESTRIMTKLRAQQCRFWTSFFPKVLEMTGNIDEAEWEWKAGFHRWNNYMMDWKNQFNDYTSKKESCVGL
In the case of B2, the “level of carboxylesterase activity relative to F227A” value [5] is reported as “approximately 50%”, the Km [6] is reported as 40 µM and the “conversion of CPT-11” value ([3]; HPLC assay, conditioned media) is reported as “less than 1%”. For the same molecule, the “CPT-11 conversion to SN-38 (SN-38 formation by HPLC), in words” value ([3]; conditioned media) was “did not show detectable levels of SN-38” and the “CPT-11 mediated cytotoxicity” value [4] was “significantly enhanced”.

B3: 6-6 variant (protein)
chain: B2 Cholinesterase with F227A, S287G, A328W, Y332M
modifications: synthetic butyrylcholinesterase variant
For B3, the “CPT-11 mediated cytotoxicity” value [4] was “increased tumor cell cytotoxicity”.
